From PMC9887876

What was measured:
[1] = target: putative baseplate wedge protein GP075 of Pseudomonas phage K8, His-tagged (Pseudomonas phage K8); test: SEC-MALS; 100 ul of protein solution (0.15-4.05 mg/ml) on a WTC-015S5 column; 100 mM NaCl, 50 mM Tris-HCl, 1 mM EDTA, 0.02% NaN3, pH 7.4; 0.4 ml/min; BSA as control; self-polymerization degree
[2] = target: GP075m, variant of the putative baseplate wedge protein GP075 with the substitution T239A (phage K8-T239A), His-tagged (Pseudomonas phage K8-T239A (derivative of phage K8)); test: as above

Row | Substance | molar mass [1] | molar mass [2]
1 | putative baseplate wedge protein GP075 of Pseudomonas phage K8, His-tagged (natural protein) | 81.2 | 
2 | GP075m, variant of the putative baseplate wedge protein GP075 with the substitution T239A (phage K8-T239A), His-tagged (natural protein) |  | 185
